Entries after “also recorded” stand apart in the source; their conditions may differ.
Experiments:
[1] = Solubility and hygroscopicity of the preparation; type: physicochemical
experimental thrombosis = assay: Duration of fibrinolytic effect and effective dose in experimental thrombosis; type: in vivo, rabbits, dogs
Text: (§1) The study of the specific (thrombolytic) effect of the polysaccharide fibrinolysin derivative according to the present invention has been studied on models of thromboses of a rabbit's jugular vein and a dog's femoral vein or artery. Thrombi of 1 to 2.5 cm size were formed in the above-mentioned animals which fully obliterated the cross-section of a blood vessel. The administration of the test preparation at the background of heparin was started one hour after the thrombus formation.
(§2) On the basis of an expected prolonged fibrinolytic effect of the preparation according to the present invention, a test dose of the preparation ranging from 400 to 4,000 units per kg of the bodyweight is dissolved in a physiological solution, 20-30 ml for rabbits and 50-100 ml for dogs, and injected by means of a syringe in a jet-like manner intravenously over 20 minutes, not following the instruction on the use of fibrinolysin (intravenously by the dropwise method at a rate of 10-12 drops per minute).
(§3) The dynamics of the thrombus formation and lysis was observed visually and by palpation during 6 hours of the experiment, after one, two and three days. The angiography and fluorometry were carried out prior to the beginning of the treatment and one day after the administration of the preparation.

Rats = assay: Toxicity upon intravenous injection in rats; type: in vivo; settings: i.v.
Text: (§4) The toxicity of the fibrinolysin derivative according to the present invention was studied on white mice, rats, rabbits and dogs.
(§5) Toxicity of the fibrinolysin derivative of the invention
(§6) for animals of different species upon intravenous injection

Rabbits = assay: Toxicity upon intravenous injection in rabbits; type: in vivo; settings: i.v.
Text: as §4, §5, §6

[2] = test system: thromboses of a rabbit's jugular vein; assay: Thrombolytic activity on model of thrombosis of rabbit's jugular vein (lysis of thrombus); type: in vivo; settings: rabbits
Text: as §1, §2, §3

thrombin time = assay: Thrombin time in dogs with experimental thrombosis; type: in vivo, dog
Text: (§7) The prolonged effect of the fibrinolysin derivative according to the present invention has been studied in experiments on dogs in comparison with the effect of native fibrinolysin.
Variation of thrombin time (in seconds) in dogs with expe-
rimental thrombosis after administration of the fibrinolysin
derivative according to the present invention and native

blood coagulation = assay: Blood coagulation and bleeding during therapy of experimental thrombosis; type: in vivo, rabbit; settings: during treatment
Text: as §1, §2, §3

[3] = test system: thromboses of a dog's femoral vein or artery; assay: Thrombolytic activity on model of thrombosis of dog's femoral vein (lysis of thrombus); type: in vivo; settings: dogs, femoral vein, 600 units/kg i.v., n=3
Text: as §1, §2, §3

Mice = assay: Toxicity upon intravenous injection in mice; type: in vivo, white mice; settings: i.v.
Text: as §4, §5, §6

Dogs = assay: Toxicity upon intravenous injection in dogs; type: in vivo; settings: i.v.
Text: as §4, §5, §6

[4] = test system: white mice, rats, rabbits and dogs; assay: Toxicity, general findings in white mice, rats, rabbits and dogs; type: in vivo; settings: for Death of animals: single i.v. dose exceeding the therapeutic dose by 4-5 times
Text: as §4

[5] = test system: euglobulin fraction of dog's plasma; assay: Lysis duration of the euglobulin fraction of dog's plasma with experimental thrombosis; type: in vivo
Text: as §7
Variation of lysis duration (in minutes) of the euglobulin
fraction of dog's plasma with experimental thrombosis upon
administration of the fibrinolysin derivative according to
the present invention and native fibrinolysin

[6] = prior-art product (Kardiologiya, 1977); cited from earlier work
[7] = before administration (baseline)

B1: Fibrinolysin derivative of the invention: fibrinolysin covalently bonded to dextran dialdehyde (molecular mass 20,000 to 110,000), reduced with sodium borohydride (conjugate, UniProt P00747 20-580; P00747 581-810, looked up)
Plasmin heavy chain A: EPLDDYVNTQGASLFSVTKKQLGAGSIEECAAKCEEDEEFTCRAFQYHSKEQQCVIMAENRKSSIIIRMRDVVLFEKKVYLSECKTGNGKNYRGTMSKTKNGITCQKWSSTSPHRPRFSPATHPSEGLEENYCRNPDNDPQGPWCYTTDPEKRYDYCDILECEEECMHCSGENYDGKISKTMSGLECQAWDSQSPHAHGYIPSKFPNKNLKKNYCRNPDRELRPWCFTTDPNKRWELCDIPRCTTPPPSSGPTYQCLKGTGENYRGNVAVTVSGHTCQHWSAQTPHTHNRTPENFPCKNLDENYCRNPDGKRAPWCHTTNSQVRWEYCKIPSCDSSPVSTEQLAPTAPPELTPVVQDCYHGDGQSYRGTSSTTTTGKKCQSWSSMTPHRHQKTPENYPNAGLTMNYCRNPDADKGPWCFTTDPSVRWEYCNLKKCSGTEASVVAPPPVVLLPDVETPSEEDCMFGNGKGYRGKRATTVTGTPCQDWAAQEPHRHSIFTPETNPRAGLEKNYCRNPDGDVGGPWCYTTNPRKLYDYCDVPQCAAPSFDCGKPQVEPKKCPGR
Plasmin light chain B: VVGGCVAHPHSWPWQVSLRTRFGMHFCGGTLISPEWVLTAAHCLEKSPRPSSYKVILGAHQEVNLEPHVQEIEVSRLFLEPTRKDIALLKLSSPAVITDKVIPACLPSPNYVVADRTECFITGWGETQGTFGAGLLKEAQLPVIENKVCNRYEFLNGRVQSTELCAGHLAGGTDSCQGDSGGPLVCFEKDKYILQGVTSWGLGCARPNKPGVYVRVSRFVTWIEGVMRNN
modifications: Plasmin dextran dialdehyde conjugate, borohydride reduced
notes: fibrinolysin covalently bonded to dextran dialdehyde (molecular mass 20,000 to 110,000), reduced with sodium borohydride
Question: What does the source list for B1?
Answer: Solubility in 0.9% isotonic solution of sodium chloride ([1]; 0.9% sodium chloride): readily soluble; Solubility in 95% ethanol ([1]; 95% ethanol): substantially insoluble; Solubility in chloroform ([1]; chloroform): substantially insoluble; Solubility in ether ([1]; ether): substantially insoluble; Hygroscopicity ([1]; lyophilized powder): hygroscopic; Solubility in water ([1]; water): readily soluble; Normalization of changes in the blood clotting system (experimental thrombosis; after administration): on the second day; Duration of the fibrinolytic effect (experimental thrombosis; after administration, listed as fibrinolysin derivative according to the present invention): up to two days after administration; also recorded: observed also on the second day; Minimal effective (therapeutical) dose (experimental thrombosis; single intravenous jet-like infusion): 400 units/kg; Prolongation of the effect as compared to native fibrinolysin (experimental thrombosis; vs native fibrinolysin): 2-3 times; LD50 (Rats): 4586 un./kg; Toxicity test result (dead/survived, not defined) (Rats; 2000 un/kg): 0/6; Toxicity test result (dead/survived, not defined) (Rats; 2500 un/kg): 0/6; Toxicity test result (dead/survived, not defined) (Rats; 3750 un/kg): 2/4; Toxicity test result (dead/survived, not defined) (Rats; 5000 un/kg): 3/3; Toxicity test result (dead/survived, not defined) (Rats; 6250 un/kg): 6/0; LD50 (Rabbits): 1834 un./kg; Toxicity test result (dead/survived, not defined) (Rabbits; 500 un/kg): 0/6; Toxicity test result (dead/survived, not defined) (Rabbits; 1500 un/kg): 2/4; Toxicity test result (dead/survived, not defined) (Rabbits; 2000 un/kg): 2/4; Toxicity test result (dead/survived, not defined) (Rabbits; 2500 un/kg): 6/0; Efficiency of the therapy (lysis of thrombus) ([2]; 400 units/kg i.v., n=7): full lysis; Efficiency of the therapy (lysis of thrombus) ([2]; 600 units/kg i.v.): full lysis; Thrombin time (thrombin time; after 2 hours): 90 s; Thrombin time (thrombin time; after 1 day): 92 s; Thrombin time (thrombin time; after 2 days): 210 s; Thrombin time, initial parameter (thrombin time; [7]): 35 s; Bleeding (blood coagulation): not accompanied by bleeding; Changes in the third phase of blood coagulation (blood coagulation): no sharp changes in the third phase of blood coagulation; Efficiency of the therapy (lysis of thrombus) [3]: full lysis; LD50 (Mice): 5000 un./kg; Toxicity test result (dead/survived, not defined) (Mice; 2000 un/kg): 0/6; Toxicity test result (dead/survived, not defined) (Mice; 2500 un/kg): 0/6; Toxicity test result (dead/survived, not defined) (Mice; 5000 un/kg): 2/4; Toxicity test result (dead/survived, not defined) (Mice; 6250 un/kg): 6/0; Toxicity test result (dead/survived, not defined) (Dogs; 500 un/kg): 0/3; Toxicity test result (dead/survived, not defined) (Dogs; 1000 un/kg): 0/3; Toxicity test result (dead/survived, not defined) (Dogs; 1500 un/kg): 0/1; Toxicity ([4]; compared with native fibrinolysin / overall statement, listed as fibrinolysin derivative according to the present invention): low toxicity; Effect on the vessels ([4]; in the test doses): no injuring effect on the vessels; Macro- and microscopic changes in the inner organs ([4]; in the test doses): no macro- and microscopic changes in the inner organs; Effect on the central nervous system and blood pressure ([4]; in therapeutical doses): no effect on the central nervous system and blood pressure; Death of animals ([4]; listed as fibrinolysin derivative according to the present invention): does not result in death of animals; Death of animals ([4]; listed as fibrinolysin derivative of the present invention): does not result in their death; Lysis duration of the euglobulin fraction ([5]; after 2 hours): 90 min; Lysis duration of the euglobulin fraction ([5]; after 1 day): 1 min; Lysis duration of the euglobulin fraction ([5]; after 2 days): 10 min; Lysis duration of the euglobulin fraction, initial parameter [5, 7]: 70 min

B2: derivative of fibrinolysin with aldehyde-containing sephadex: fibrinolysin reacted with a modified aldehyde-containing sephadex in a phosphate buffer at 4° C. (conjugate, UniProt P00747 20-580; P00747 581-810, looked up)
Plasmin heavy chain A: B1 Plasmin heavy chain A
Plasmin light chain B: B1 Plasmin light chain B
modifications: plasmin conjugated to aldehyde-containing Sephadex
Question: For B2, which “Solubility in water and aqueous solutions” value [6] is on record?
Answer: not soluble
